Laboratory results from US20250277029A1 (Amgen, published 2025).
Substitutions are numbered along the chain they refer to. Names may count otherwise.

B1: LIBC523797-1 (antibody, V domains shown)
VH: QVQLQESGPGLVKPSQTLSLTCTVSGGSIRRGGDYWSWIRQHPGKGLEWIGHVYYTGSTKYNPNFKGRATISVNTYKNQFSLKLSSVTAADTAVYYCARDYDILTGYSYYYYGMDVWGQGTTVTVSS
VL: DIVMTQSPLSLPVTPGEPASISCRSSQSLLTSYGINYVDWYLQKPGQSPQLLIYQGSNRASGVPDRFSGSGSGTDFTLKISRVEAEDVGVYYCRQAVGLPRTFGQGTKVEIKR
notes: Expressed as IgG1 SEFL2 mAb
B2: 10D10 HC D83K/LC N35Y (26970-1) (antibody, V domains shown)
VH: B1 VH with H52Y, V53I, T56S, K60N, N64S, F65L, G67S, N74K, Y76S
VL: not shown
notes: Earlier 10D10 variant used as benchmark
B3: LIBC680562-1 (yeast-displayed Fab) (Fab, V domains shown)
VH: B1 VH with S37A, V53I, Y55Q, K60N, N64R, D100N, I103T
VL: DIQMTQSPSSLSASVGDRVTITCRASQSISSYLNWYQQKPGKAPKLLIYSARRLSSGVPSRFSGSGSGTDFTLTISSLQPEDFATYYCQQYAKSPITFGGGTKVEIKR
B4: LIBC681594-1 (yeast-displayed Fab) (Fab, V domains shown)
VH: B1 VH with S37A, V53I, Y55Q, K60N, N64R, D100N, I103T
VL: B3 VL with S50K, R53K, Y91F, A92G, K93S, S94M, I96L
B5: LIBC680800-1 (yeast-displayed Fab) (Fab, V domains shown)
VH: B1 VH with S37A, V53I, Y55Q, K60N, N64R, D100N, I103T
VL: B3 VL with R53A, A92R, S94F, I96L
B6: LIBC681593-1 (yeast-displayed Fab) (Fab, V domains shown)
VH: B1 VH with S37A, V53I, Y55Q, K60N, N64R, D100N, I103T
VL: B3 VL with S50N, S55G, A92R, K93S, I96V
B7: LIBC528116-1 (antibody, IgG1, V domains shown)
VH: B1 VH with S37A, K60N, N64R, G67D, D100N, I103T, L104V
VL: DIQLTQSPSTLSASVGDRVTITCRASQSISNYLNWYQQKPGKAPKLLIYAASSLHSGVPSRFSGSGSGTDFTLTISSLQPEDFASYYCQQYQSYPLTFGQGTKVEIKR
notes: also called 37940-4
B8: LIBC680574-1 (yeast-displayed Fab) (Fab, V domains shown)
VH: B1 VH with S37A, N64S, G67D, D100N, I103T
VL: B3 VL with S50G, S55G, A92S, K93S, S94L, I96V
B9: LIBC680773-1 (yeast-displayed Fab) (Fab, V domains shown)
VH: B1 VH with S37A, K60N, N64R, G67D, D100N, I103T, L104V
VL: B3 VL with S50K, R53L, A92S, K93R, S94L, I96L
B10: LIBC680812-1 (yeast-displayed Fab) (Fab, V domains shown)
VH: B1 VH with S37G, Y55Q, N64S, G67D, D100N, I103T
VL: B3 VL with A92R, K93S, S94Y
B11: LIBC523797-1 (antibody, IgG1, V domains shown)
VH: B1 VH
VL: B1 VL

Assays:
[1] = target: human cannabinoid receptor 1 (huCB1), full length, expressed on cells (human, UniProt P21554 1-472); test: cell-based or functional assay
human cannabinoid receptor 1 (huCB1), full length, expressed on cells, sequence (P21554 whole entry): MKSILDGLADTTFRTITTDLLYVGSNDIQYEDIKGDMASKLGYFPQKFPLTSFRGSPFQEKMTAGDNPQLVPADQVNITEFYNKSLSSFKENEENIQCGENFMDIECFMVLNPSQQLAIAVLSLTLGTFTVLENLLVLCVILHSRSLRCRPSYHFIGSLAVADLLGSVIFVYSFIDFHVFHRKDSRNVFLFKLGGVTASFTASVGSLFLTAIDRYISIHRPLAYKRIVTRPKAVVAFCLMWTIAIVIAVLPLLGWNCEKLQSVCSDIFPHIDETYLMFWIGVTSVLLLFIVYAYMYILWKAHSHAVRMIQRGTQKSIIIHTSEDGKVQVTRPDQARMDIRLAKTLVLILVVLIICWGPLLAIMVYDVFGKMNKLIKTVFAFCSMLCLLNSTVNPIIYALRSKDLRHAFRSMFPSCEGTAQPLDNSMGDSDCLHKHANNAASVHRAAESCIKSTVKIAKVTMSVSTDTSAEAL

huCB1 nanodisc (CB1-ND) [2] = target: T1, huCB1 nanodisc (CB1-ND) (human, UniProt P21554 99-414); test: Octet BLI; antibody captured by anti-human Fc, CB1-nanodisc in solution, 1:1 model
T1 construct: The His-tagged CB1 is embedded in a POPC lipid nanodisc with MSP1D1 scaffold protein (molar ratio 480:8:1); also called huCB1-ND; #CB1-008
T1 sequence (P21554 99-414 limits assumed): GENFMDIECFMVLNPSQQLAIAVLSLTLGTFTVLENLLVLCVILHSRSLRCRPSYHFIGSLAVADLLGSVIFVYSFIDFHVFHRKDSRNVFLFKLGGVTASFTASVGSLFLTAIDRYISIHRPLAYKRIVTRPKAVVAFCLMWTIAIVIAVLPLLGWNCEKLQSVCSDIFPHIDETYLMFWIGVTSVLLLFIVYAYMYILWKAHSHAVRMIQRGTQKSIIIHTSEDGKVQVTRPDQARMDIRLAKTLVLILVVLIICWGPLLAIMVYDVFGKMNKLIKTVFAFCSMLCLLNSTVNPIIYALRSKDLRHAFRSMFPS

mouse CB1 = target: T2, mouse CB1 (mouse, UniProt P47746 1-473); test: fold over mock (Table 14)
T2 construct: also called muCB1; murine CB1
T2 sequence (P47746 whole entry): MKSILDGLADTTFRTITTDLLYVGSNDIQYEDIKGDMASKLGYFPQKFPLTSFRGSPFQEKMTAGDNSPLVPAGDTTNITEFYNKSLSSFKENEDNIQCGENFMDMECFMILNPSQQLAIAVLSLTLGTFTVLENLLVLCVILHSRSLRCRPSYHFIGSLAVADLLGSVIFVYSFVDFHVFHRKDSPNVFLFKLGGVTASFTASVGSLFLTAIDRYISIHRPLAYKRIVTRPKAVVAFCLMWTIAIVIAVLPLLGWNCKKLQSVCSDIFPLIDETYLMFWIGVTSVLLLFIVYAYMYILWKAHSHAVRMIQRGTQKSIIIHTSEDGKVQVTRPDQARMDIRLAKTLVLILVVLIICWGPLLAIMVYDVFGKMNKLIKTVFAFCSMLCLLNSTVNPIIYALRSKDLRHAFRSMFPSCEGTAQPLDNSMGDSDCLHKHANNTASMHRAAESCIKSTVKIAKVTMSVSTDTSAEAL

[3] = target: T3, human cannabinoid receptor type 2 (CB2) (human, UniProt P34972 1-360); test: fold over mock (Table 14)
T3 construct: also called huCB2; full length hu CB2
T3 sequence (P34972 whole entry): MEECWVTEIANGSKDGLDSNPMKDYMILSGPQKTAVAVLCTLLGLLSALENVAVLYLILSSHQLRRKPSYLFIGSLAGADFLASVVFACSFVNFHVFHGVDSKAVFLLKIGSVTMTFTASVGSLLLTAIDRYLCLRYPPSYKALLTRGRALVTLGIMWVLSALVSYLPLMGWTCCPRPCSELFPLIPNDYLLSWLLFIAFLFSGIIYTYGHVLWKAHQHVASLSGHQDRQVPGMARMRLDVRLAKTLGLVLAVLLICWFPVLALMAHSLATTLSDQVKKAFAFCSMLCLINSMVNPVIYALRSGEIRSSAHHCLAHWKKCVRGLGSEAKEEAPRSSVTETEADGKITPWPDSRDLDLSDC

[4] = target: T4, GFP-fused huCB1 in styrene maleic acid lipoparticles (CB1-SMALP-GFP) (human, UniProt P21554 1-472); test: flow cytometry, yeast-displayed Fab, 2.5 nM CB1-SMALP-GFP, after background subtraction
T4 construct: Prepared as described in Luna V. et al. 2018; also called huCB1-GFP-SMALP; GFP-tagged huCB1-SMALP; not shown: GFP fused to huCB1
T4 sequence (P21554 whole entry, the tested form may be a part): as the sequence (P21554 whole entry) above

huCB1 nanodisc (CB1-ND) [5] = target: T1, huCB1 nanodisc (CB1-ND); test: flow cytometry, yeast-displayed Fab, 0.2 nM CB1-ND, after background subtraction
[6] = target: empty nanodisc (Empty ND); test: flow cytometry, yeast-displayed Fab, 50 nM Empty ND, after background subtraction
empty nanodisc (Empty ND), sequence (P02647 79-267): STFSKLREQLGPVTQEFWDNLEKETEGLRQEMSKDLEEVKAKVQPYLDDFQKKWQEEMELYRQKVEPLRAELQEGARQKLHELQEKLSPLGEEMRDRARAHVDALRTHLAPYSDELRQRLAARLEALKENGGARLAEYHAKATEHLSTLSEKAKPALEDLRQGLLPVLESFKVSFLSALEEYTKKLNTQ

[7] = target: T5, GFP-fused huCB1-SMALP (human CB1 in styrene maleic acid lipoparticles) (human, UniProt P21554 1-472); test: flow cytometry, yeast-displayed IgG, GFP MFI
T5 construct: Prepared as in Luna V. et al. 2018; also called huCB1-GFP-SMALP; wtCB1-SMALP; not shown: GFP fusion
T5 sequence (P21554 whole entry, the tested form may be a part): as the sequence (P21554 whole entry) above

[8] = target: T5, GFP-fused huCB1-SMALP (human CB1 in …); test: flow cytometry, yeast-displayed IgG, GFP MFI; remark: listed apart in the source

| Binder | Relative binding fold change compared to LIBC528116 (Fab) [4] [fold] | Relative binding fold change compared to LIBC528116 (Fab) (huCB1 nanodisc (CB1-ND) [5]) [fold] | Relative binding fold change compared to LIBC528116 (Fab) [6] [fold] | also measured |
| --- | --- | --- | --- | --- |
| B1 |  |  |  | Antagonist assay IC50 (nM), 2-AG [1]: 2.9 nM; Antagonist assay IC50 (nM), Anandamide [1]: 10.4 nM; Antagonist assay IC50 (nM), CP 55,940 [1]: 3.4 nM; Inverse agonist assay IC50 [1]: 14.1 nM; Kd (huCB1 nanodisc (CB1-ND) [2]): 18 nM |
| B2 |  |  |  | binding result (mouse CB1): no binding; binding result [3]: no binding |
| B3 | 1.94 | 3.34 | 0.68 |  |
| B4 | 2.57 | 3.56 | 0.83 |  |
| B5 | 1.76 | 2.52 | 0.78 |  |
| B6 | 2.37 |  | 0.91 |  |
| B7 |  |  |  | 100 nM huCB1-GFP-SMALP binding (normalized to 10D10N35Y) [7]: 5.8 fold; binding result (mouse CB1): no binding; binding result [3]: no binding |
| B8 | 1.72 |  | 0.72 |  |
| B9 | 1.9 | 2.4 | 0.75 |  |
| B10 | 1.71 | 2.23 | 0.74 |  |
| B11 |  |  |  | 100 nM huCB1-SMALP binding (normalized to 10D10) [8]: 7.01 fold; binding result (mouse CB1): no binding; binding result [3]: no binding |
